Laboratory results: the supplement of paper PMC10724198
± gives the standard deviation of the averaged measurements.

Legend:
[1] = system: Saccharomyces cerevisiae; experiment: protein stability index of tFT-peptide fusion (C-terminal peptide) (PSI (0-1 scale)); higher = more stable (slower turnover); settings: genetic background: wild type; temperature: 30 C
[2] = system: Saccharomyces cerevisiae; experiment: as above
Description: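 MPS profiling in S. cerevisiae of the tFT-X12 degron library: putative degron peptides plus stable controls, 12 aa, fused to the C-terminus of a sfGFP-mCherry timer. Cells are FACS-sorted into 8 mCherry/sfGFP bins and deep-sequenced. PSI runs from 0 (unstable) to 1 (stable). Backgrounds are wild type, das1Δ and doa10Δ at 30 °C, and wild type, das1Δ, cdc34-1 and cdc53-1 at 37 °C; 2-3 technical replicates each.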

[3] = genetic background: cdc34-1, temperature: 37 C
[4] = genetic background: cdc53-1, temperature: 37 C
[5] = genetic background: das1 deletion, temperature: 30 C
[6] = genetic background: das1 deletion, temperature: 37 C
[7] = genetic background: doa10 deletion, temperature: 30 C
[8] = genetic background: wild type, temperature: 30 C
[9] = genetic background: wild type, temperature: 37 C
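Note: PSI is a weighted mean of sequencing reads over stability bins, variants kept only with over 10 reads, mCherry proximal and sfGFP distal, peptide attached via GGGS linker.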

Sequence | protein stability index [1] | protein stability index [2, 3] | protein stability index [2, 4] | protein stability index [2, 5] | protein stability index [2, 6] | protein stability index [2, 7] | protein stability index [2, 8] | protein stability index [2, 9]
IKIQPKKRISLI | 0.299 ± 0.0067 | 0.658 ± 0.056 | 0.707 ± 0.058 | 0.632 ± 0.039 | 0.702 ± 0.017 | 0.155 ± 0.0043 | 0.174 ± 0.043 | 0.391 ± 0.031
ILAVMFEIYAIL | 0.3593 ± 0.0012 | 0.422 ± 0.013 | 0.5124 ± 0.0015 | 0.349 ± 0.042 | 0.533 ± 0.0094 | 0.185 ± 0.018 | 0.228 ± 0.029 | 0.42 ± 0.023
ILCYVWLVFSGF | 0.373 ± 0.022 | 0.225 ± 0.0092 | 0.311 ± 0.019 | 0.223 ± 0.029 | 0.382 ± 0.01 | 0.194 ± 0.0036 | 0.204 ± 0.032 | 0.369 ± 0.025
INHVIHAKLRFS | 0.237 ± 0.066 | 0.629 ± 0.015 | 0.675 ± 0.082 | 0.643 ± 0.011 | 0.72 ± 0.03 | 0.11 ± 0.026 | 0.13 ± 0.03 | 0.249 ± 0.075
ISSAGHNIRFLA | 0.23 ± 0.052 | 0.599 ± 0.052 | 0.698 ± 0.022 | 0.658 ± 0.025 | 0.715 ± 0.008 | 0.107 ± 0.025 | 0.129 ± 0.034 | 0.21 ± 0.018
ISTRLALCACVC | 0.3273 ± 0.0032 | 0.184 ± 0.027 | 0.18 ± 0.0098 | 0.245 ± 0.019 | 0.3009 ± 0.0026 | 0.1999 ± 0.00074 | 0.208 ± 0.017 | 0.245 ± 0.0031
IVRDTECGIFYR | 0.731 ± 0.013 | 0.689 ± 0.05 | 0.75 ± 0.021 | 0.642 ± 0.016 | 0.735 ± 0.023 | 0.6512 ± 0.0058 | 0.6662 ± 0.006 | 0.723 ± 0.021
IVVWCGIRYSIR | 0.366 ± 0.032 | 0.328 ± 0.005 | 0.415 ± 0.055 | 0.263 ± 0.035 | 0.484 ± 0.0071 | 0.233 ± 0.013 | 0.262 ± 0.029 | 0.459 ± 0.0096
KKKEILVYIIQE | 0.484 ± 0.014 | 0.598 ± 0.036 | 0.612 ± 0.024 | 0.438 ± 0.029 | 0.578 ± 0.018 | 0.4732 ± 0.0016 | 0.512 ± 0.077 | 0.592 ± 0.02
KRLALVSCSICG | 0.4681 ± 0.0043 | 0.569 ± 0.03 | 0.6459 ± 0.003 | 0.446 ± 0.025 | 0.6239 ± 0.002 | 0.321 ± 0.028 | 0.351 ± 0.031 | 0.583 ± 0.0087
KRRKERIKIQQI | 0.261 ± 0.062 | 0.628 ± 0.037 | 0.715 ± 0.041 | 0.634 ± 0.073 | 0.737 ± 0.089 | 0.122 ± 0.0062 | 0.168 ± 0.046 | 0.28 ± 0.0094
KVGPVLLLCRRS | 0.445 ± 0.0089 | 0.6524 ± 0.00046 | 0.68 ± 0.023 | 0.637 ± 0.013 | 0.699 ± 0.0081 | 0.621 ± 0.019 | 0.628 ± 0.028 | 0.69 ± 0.0066
LAGSSSIVVVFG | 0.406 ± 0.018 | 0.445 ± 0.00068 | 0.469 ± 0.04 | 0.299 ± 0.038 | 0.527 ± 0.0056 | 0.2496 ± 0.0021 | 0.297 ± 0.049 | 0.496 ± 0.026
LAGVVWVVWCVG | 0.314 ± 0.06 | 0.17 ± 0.013 | 0.21 ± 0.0091 | 0.195 ± 0.031 | 0.385 ± 0.0088 | 0.1814 ± 0.00077 | 0.198 ± 0.03 | 0.367 ± 0.039
LALTRAAITHFF | 0.42 ± 0.026 | 0.649 ± 0.026 | 0.749 ± 0.013 | 0.652 ± 0.017 | 0.743 ± 0.039 | 0.213 ± 0.0085 | 0.253 ± 0.026 | 0.496 ± 0.021
LASLSRPFRAKF | 0.792 ± 0.0093 | 0.9674 ± 0.0085 | 0.949 ± 0.026 | 0.843 ± 0.011 | 0.914 ± 0.013 | 0.828 ± 0.029 | 0.8573 ± 0.0074 | 0.916 ± 0.012
LCFLVLLSLLLL | 0.528 ± 0.061 | 0.558 ± 0.047 | 0.581 ± 0.018 | 0.464 ± 0.029 | 0.5486 ± 0.0041 | 0.466 ± 0.022 | 0.456 ± 0.024 | 0.5057 ± 0.0012
LCHILAIIRRGA | 0.509 ± 0.05 | 0.691 ± 0.019 | 0.737 ± 0.032 | 0.596 ± 0.037 | 0.687 ± 0.013 | 0.429 ± 0.038 | 0.449 ± 0.05 | 0.624 ± 0.036
LCLRCQCIGTLS | 0.489 ± 0.0097 | 0.54 ± 0.017 | 0.587 ± 0.014 | 0.45 ± 0.023 | 0.557 ± 0.012 | 0.413 ± 0.016 | 0.435 ± 0.013 | 0.54 ± 0.0091
LCSLSIFVLFSC | 0.25 ± 0.005 | 0.192 ± 0.015 | 0.309 ± 0.027 | 0.209 ± 0.036 | 0.381 ± 0.0064 | 0.141 ± 0.0032 | 0.147 ± 0.017 | 0.272 ± 0.018

Sequence | protein stability index [1] | protein stability index [2, 3] | protein stability index [2, 4] | protein stability index [2, 5] | protein stability index [2, 6] | protein stability index [2, 7] | protein stability index [2, 8] | protein stability index [2, 9]
LCSVVIFCLVWG | 0.324 ± 0.022 | 0.117 ± 0.0048 | 0.263 ± 0.041 | 0.198 ± 0.03 | 0.343 ± 0.044 | 0.177 ± 0.008 | 0.182 ± 0.019 | 0.306 ± 0.0083
LCVWRRAIVWVG | 0.137 ± 0.039 | 0.363 ± 0.038 | 0.4573 ± 0.0015 | 0.352 ± 0.025 | 0.512 ± 0.007 | 0.0712 ± 0.011 | 0.0818 ± 0.021 | 0.0815 ± 0.0071
LFDYEAGEVMGG | 0.717 ± 0.017 | 0.729 ± 0.042 | 0.747 ± 0.03 | 0.661 ± 0.023 | 0.783 ± 0.017 | 0.656 ± 0.025 | 0.689 ± 0.022 | 0.779 ± 0.023
LFFFLVWSLSVF | 0.0314 ± 0.029 | 0.0262 ± 0.0035 | 0.0512 ± 0.0066 | 0.0353 ± 0.011 | 0.0635 ± 0.02 | 0.0187 ± 0.0092 | 0.0205 ± 0.0042 | 0.0395 ± 0.013
LFFFVCYLATVK | 0.276 ± 0.053 | 0.198 ± 0.0088 | 0.347 ± 0.11 | 0.23 ± 0.032 | 0.416 ± 0.017 | 0.166 ± 0.011 | 0.191 ± 0.02 | 0.326 ± 0.0072
LFGFYFVRCLVW | 0.226 ± 0.0096 | 0.113 ± 0.0026 | 0.168 ± 0.022 | 0.178 ± 0.022 | 0.263 ± 0.012 | 0.16 ± 0.017 | 0.159 ± 0.0095 | 0.23 ± 0.0099
LFHFPSWIFCLL | 0.331 ± 0.0049 | 0.562 ± 0.02 | 0.612 ± 0.029 | 0.55 ± 0.036 | 0.688 ± 0.015 | 0.24361 ± 0.00024 | 0.251 ± 0.014 | 0.308 ± 0.016
LFIRSFLFFSHF | 0.27 ± 0.0052 | 0.353 ± 0.0079 | 0.3482 ± 0.00057 | 0.498 ± 0.019 | 0.581 ± 0.016 | 0.248 ± 0.026 | 0.184 ± 0.025 | 0.307 ± 0.082
LFLTSFRFLRLF | 0.162 ± 0.0047 | 0.337 ± 0.016 | 0.4813 ± 0.0027 | 0.509 ± 0.0094 | 0.597 ± 0.03 | 0.0803 ± 0.006 | 0.0691 ± 0.015 | 0.134 ± 0.03
LFPLLCLLLPSL | 0.538 ± 0.065 | 0.614 ± 0.091 | 0.664 ± 0.033 | 0.548 ± 0.025 | 0.638 ± 0.0096 | 0.521 ± 0.027 | 0.522 ± 0.02 | 0.628 ± 0.0063
LFTVCMIIQMVH | 0.177 ± 0.017 | 0.0516 ± 0.003 | 0.185 ± 0.0029 | 0.145 ± 0.036 | 0.273 ± 0.02 | 0.0793 ± 0.0011 | 0.1 ± 0.055 | 0.173 ± 0.016
LFVGLVSFRIGA | 0.477 ± 0.029 | 0.563 ± 0.039 | 0.573 ± 0.014 | 0.428 ± 0.029 | 0.601 ± 0.0068 | 0.399 ± 0.018 | 0.419 ± 0.021 | 0.575 ± 0.0069
LGCRFCFVGVVG | 0.494 ± 0.033 | 0.589 ± 0.011 | 0.632 ± 0.052 | 0.429 ± 0.021 | 0.634 ± 0.026 | 0.395 ± 0.01 | 0.439 ± 0.029 | 0.574 ± 0.022
LGPLGWLVLLLV | 0.292 ± 0.035 | 0.415 ± 0.012 | 0.425 ± 0.014 | 0.353 ± 0.022 | 0.483 ± 0.0058 | 0.23 ± 0.015 | 0.22 ± 0.021 | 0.354 ± 0.0068
LGWFVDFVFVVW | 0.4693 ± 0.0045 | 0.289 ± 0.0096 | 0.426 ± 0.037 | 0.27 ± 0.03 | 0.458 ± 0.012 | 0.244 ± 0.0045 | 0.274 ± 0.025 | 0.454 ± 0.0019
LHASCVYTILLV | 0.389 ± 0.0049 | 0.427 ± 0.035 | 0.4584 ± 0.0012 | 0.351 ± 0.03 | 0.499 ± 0.0092 | 0.323 ± 0.019 | 0.304 ± 0.019 | 0.451 ± 0.0082
LIARYTFLFCLC | 0.444 ± 0.031 | 0.553 ± 0.042 | 0.611 ± 0.015 | 0.531 ± 0.015 | 0.628 ± 0.021 | 0.3501 ± 0.0008 | 0.354 ± 0.024 | 0.488 ± 0.025
LLCGVLFFFWVV | 0.42 ± 0.068 | 0.38 ± 0.018 | 0.496 ± 0.011 | 0.383 ± 0.03 | 0.525 ± 0.017 | 0.311 ± 0.0096 | 0.32 ± 0.021 | 0.451 ± 0.0076
LLFSVLLLGVGF | 0.407 ± 0.035 | 0.425 ± 0.033 | 0.4723 ± 0.001 | 0.334 ± 0.023 | 0.5038 ± 0.0037 | 0.329 ± 0.024 | 0.324 ± 0.036 | 0.475 ± 0.0074
